Ends that are not written are not given here.
What was measured:
[1] = molecular target: human OGF receptor (OGFr), native, in nuclear preparations of human cells and tissues (human) (UniProt Q9NZT2); assay: competition with [3H]-[Met5]-enkephalin, PANC-1 nuclear homogenates; IC50/Kd
[2] = molecular target: T1, 12-GST fusion protein (GST fused to rat OGFr, all 580 amino acids, from clone #12) (rat, UniProt Q9QXY4 1-580); assay: [3H]-[Met5]-enkephalin saturation binding, filter assay, purified 12-GST fusion protein, 22 C
T1 construct: The order GST then OGFr follows the pGEX-3X vector; also called purified fusion protein from the rat OGFr cDNA clone #12; not shown: glutathione-S-transferase (GST) of the pGEX-3X expression vector
T1 sequence: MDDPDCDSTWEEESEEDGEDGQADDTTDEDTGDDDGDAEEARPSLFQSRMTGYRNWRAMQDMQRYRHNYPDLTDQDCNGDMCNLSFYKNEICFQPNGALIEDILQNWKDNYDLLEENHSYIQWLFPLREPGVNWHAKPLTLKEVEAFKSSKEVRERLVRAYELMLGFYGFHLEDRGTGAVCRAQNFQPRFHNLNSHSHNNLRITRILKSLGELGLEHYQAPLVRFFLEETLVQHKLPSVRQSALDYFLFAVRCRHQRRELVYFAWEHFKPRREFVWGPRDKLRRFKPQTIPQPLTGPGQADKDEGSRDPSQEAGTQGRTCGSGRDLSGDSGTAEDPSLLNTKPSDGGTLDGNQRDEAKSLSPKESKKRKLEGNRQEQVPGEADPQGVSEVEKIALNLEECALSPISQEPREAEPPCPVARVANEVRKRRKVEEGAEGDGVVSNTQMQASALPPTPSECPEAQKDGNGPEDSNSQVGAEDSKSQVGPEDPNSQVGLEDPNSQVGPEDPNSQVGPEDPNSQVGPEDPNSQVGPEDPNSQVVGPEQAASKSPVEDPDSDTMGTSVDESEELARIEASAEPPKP
Experimental: Fusion proteins (80-120 ng/tube) were incubated for 30 min with shaking at 22° C. Non-specific binding was measured in the presence of unlabeled [Met⁵]-enkephalin. In some assays, NTX (10⁻³ M) was added to the reaction mixture to monitor opioid antagonist blockade of binding. Binding was terminated by filtering homogenates through Whatman GF/B filters. Saturation isotherms were plotted using GraphPad Prism software (GraphPad Software Inc., San Diego, Calif.).

[3] = molecular target: T2, human OGF receptor (OGFr), native, in nuclear preparations of human cells and tissues (human, UniProt Q9NZT2 1-662, limits assumed); assay: radioligand saturation binding, nuclear-enriched fraction of human placenta
T2 construct: Native receptor in nuclear homogenates (placenta, PANC-1, MIA PaCa-2, Capan-1, BxPC-3, pancreatic tissue, head and neck tissue); also called zeta opioid receptor; receptor for OGF
T2 chain: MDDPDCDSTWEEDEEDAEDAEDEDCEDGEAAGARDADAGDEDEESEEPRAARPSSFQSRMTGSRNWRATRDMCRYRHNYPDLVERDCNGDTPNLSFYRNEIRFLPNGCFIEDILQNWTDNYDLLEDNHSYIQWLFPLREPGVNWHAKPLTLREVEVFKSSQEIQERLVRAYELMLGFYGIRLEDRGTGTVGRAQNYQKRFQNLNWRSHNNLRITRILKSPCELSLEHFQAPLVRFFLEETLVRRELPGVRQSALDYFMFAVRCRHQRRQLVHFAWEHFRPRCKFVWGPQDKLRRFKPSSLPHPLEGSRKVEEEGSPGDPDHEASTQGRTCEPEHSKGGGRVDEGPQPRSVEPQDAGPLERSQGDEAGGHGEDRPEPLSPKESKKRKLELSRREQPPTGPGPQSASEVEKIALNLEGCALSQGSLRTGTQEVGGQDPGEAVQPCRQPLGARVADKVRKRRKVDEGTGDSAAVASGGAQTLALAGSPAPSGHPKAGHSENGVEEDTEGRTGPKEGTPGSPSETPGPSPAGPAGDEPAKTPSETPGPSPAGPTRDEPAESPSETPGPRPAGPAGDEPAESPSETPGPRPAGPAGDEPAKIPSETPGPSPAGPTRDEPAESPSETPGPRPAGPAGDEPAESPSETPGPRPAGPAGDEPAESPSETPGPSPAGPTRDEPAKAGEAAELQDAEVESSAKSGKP

[4] = molecular target: T2, human OGF receptor (OGFr), native, in …; assay: competition with [3H]-[Met5]-enkephalin, PANC-1 nuclear homogenates; IC50/Kd
Experimental: Each concentration was run in triplicate and every compound was tested twice.
Competition experiments using 1 or 2 nM [³H]

[D-Pen^2, Pen^5]-enkephalin (peptide)
IC50 [1]: > 100 µM

ICI-174, 568 (peptide)
IC50 [1]: > 100 µM

[D-Ala^2, N-Me-Phe^4, Gly^5-ol]-enkephalin (peptide)
IC50 [1]: > 100 µM

B1: [Met^5]-enkephalin (opioid growth factor) (peptide, UniProt P01210 100-104, looked up)
peptide: YGGFM
modifications: also: [3H] label on radioligand form
notes: domain: [Met^5]-enkephalin; only the pentapeptide stood in the assay; also called OGF; [^3H]-[Met^5]-enkephalin
Kd [2]: 0.0028 µM
Kd [3]: 0.0123 µM

YGGFL (peptide, UniProt P01210 230-234, looked up, domain: Leucine enkephalin) [Leucine enkephalin]
IC50 [4]: > 100 µM

B2: dynorphin A1-8 (peptide, UniProt P01213 207-214, looked up)
peptide: YGGFLRRI
notes: domain: Dynorphin A1-8; 1-8 counts on dynorphin A, not on the precursor
IC50 [4]: > 100 µM
